Results taken from the DeepSol protein solubility set.

Assay: soluble on expression in E. coli; label from the status in PepcDB or PDB records
With “MAHHHHHHMAKKHLKRLYAPKDWMLSKLTGVFAPRPRAGPHKLRECLSLLIIIRNRLKYALNALEAQMILRQGLVCVDGKPRKDGKYPAGFMDVVEIPKTGDRFRILYDVKGRFALVRVSEAESSIKMMKVVNVYTGTGRIPVAVTHDGHRIRYPDPRTSRGDTLVYDVKEKKVLDLIKIGNGKVVMVTGGANRGRIGEIVSIERHPGAFDIARLKDASGHEFATRATNIFVIGKDMSSVPVTLPKQQGLRINVIQEREEKLIAAETRRTTQAHSKRKTKV” the “soluble on expression in E. coli” value was “not soluble”. For “MAHHHHHHMANAELVDAGCFITQMNELLLIDPLYINCTMTNYCNSYISGKEKLLPRERLNGIYFKNAKPGLWSSFAIRENNQACLKKTSNQETETDAENRNNNNSYNNVRNEMVLSFICFNNTEYMHEYLTVEKVDKLKWEKVKPNESHLRVGQADQYNSTVNIEYKNEKTGIFHHNKNELLPLENYFTNVLTIESGQVGLFCMESIKHSADLLFQKHEMNNISNKEELDNLFNQNMNDLYPWFEKICNLTLSSSVAVVDFIDMPIGCVCLSSSDCVVNYLCEVVRDEVTDEVWAIRVNFLSPLK”, the “soluble on expression in E. coli” value was “soluble”. With “MAHHHHHHMANSRASTLAAAAAAASTAAVKPLSYVSLRSHDGKHVILPVAAAAGSRVLHGIFQGLYVMRLHQCNSPADQPPHAQHEQYPMVEEDAQQGELHIPRSGSSSSSGSDVANKAHGSAEVKVDDPIPIIEDEDDIEEDEARHQVNGAAYRSYAAVFPSNVACVPPPPSPLLSTSPPAAPSPCVPPLLEVPICSLEFSTLMRVAEFLVVKITLASHPHYLHEANVFGDLDRTSERDQLVAMQVLLGADFLNC” the “soluble on expression in E. coli” value was “not soluble”. With “MAHHHHHHMAPPNGTVCCPEDLKMYSTIQLNQEIEISKNPFPLHEINKKNDIPLCAQEFSDLTDPLYIKKICLEKVPEWNHFTEDNLRVKQILSGLTNQLFEVGLKEETANNYNSIRTRVLFRIYGKHVDELYNTISEFEVYKTMSKYKIAPQLLNTFNGGRIEEWLYGDPLRIDDLKNPTILIGIANVLGKFHTLSRKRHLPEHWDRTPCIFKMMEKWKNQLFKYKNIEKYNCDIHKYIKESDKFIKFMKVYSKSDNLANTIVFCHNDLQENNIINTNKCLRLIDFEYSGFNFLATDIANFFIETSIDYSVSSYPFFEIDKKKYISYENRKLFITAYLSNYLDKSLVVPTPKLIDEILEAVEVQALGAHLLWGFWSIIRGYQTKSYNEFDFFLYAEQRLKMYDDQKEYLISNNI” the “soluble on expression in E. coli” value was “not soluble”. In the case of “MAHHHHHHMATNPDIETDIPRDVYQFFRGLNRAVERRDAAAMHDLYESQFDALTKNYYMAGHGQFRSWPALRLEQVSSCFRGNHMAELVYSFLFYKHLFMDNRSVRAPDAEGAWKTYSELLPMLKSYELPNWMLWDIFDEFLYQMTVVYQKVFVTEGIWAVPEVSRLLNEVIDNSRLLELVKQPDFLEDIHRGPNTGALSGFYAIVTKSKLNVLLGDYYSALTDLEPLDVYNKGRAVLTRVSPCAVSVFYHIGFSYLMIHRFEDASNAFRRCVTVKLNGRRFSERVQQDAAYMYVCARVLGGMPINNLTSYLDSRKVAAFEDDRESLRTGDEERFRDVFDRCSPKFLTVPPSDGSPVKGSEGRELQARMFRRAVQQQQDIIKLRGYFKVYQNTKMNLLETLLEVDDGYAPLFALKMRSRQLVHDGVTADLLQGVFTSSSEFDCIVQDDNVEVVPSMTFGGIEQKLLNKIKNTQRDIEVAKRKFNQTRNRDEGGNKRKDQRDQKRRPNQQQLHGGVGNNAGSANRSSNNVNRHPRQKMAAQPMTSNLFNRNDN”, the “soluble on expression in E. coli” value was “soluble”. With “MAHHHHHHMATVGDPLFRIHEPTYAFLDCSACIAFAGHLGRRMNESIRYGGRGGATFLSSHRLGKDNKLKRRDYATSELRGAEVLEKICNDSLFDDYALHFRADMRIRVYDNGESEYPLAQHYSKEDSRILKAVKTKAVHVFCTRVMDEEEDAMTSLVREVELLSELEQRLCGGYLEMRNITAPPFPVEKAVTAVCVGVEPSIEAEVRRLEKYEKWQASISKGTSQDKMKGAEGAESVVVKGVQYSKDDPLSFTVLRKPNAKSNGDTTEGGSDAAEDVRKQPDKDSVFMNFDL” the “soluble on expression in E. coli” value was “not soluble”. With “MAHHHHHHMAVESRSRVTSKLVKAHRAMLNSVTQEDLKVDRLPGADYPNPSKKYSSRTEFRDKTDYIMYNPRPRDEPSSENPVSVSPLLCELAAARSRIHFNPTETTIGIVTCGGICPGLNDVIRSITLTGINVYNVKRVIGFRFGYWGLSKKGSQTAIELHRGRVTNIHHYGGTILGSSRGPQDPKEMVDTLERLGVNILFTVGGDGTQRGALVISQEAKRRGVDISVFGVPKTIDNDLSFSHRTFGFQTAVEKAVQAIRAAYAEAVSANYGVGVVKLMGRDSGFIAAQAAVASAQANICLVPENPISEQEVMSLLERRFCHSRSCVIIVAEGFGQDWGRGSGGYDASGNKKLIDIGVILTEKVKAFLKANKSRYPDSTVKYIDPSYMIRACPPSANDALFCATLATLAVHEAMAGATGCIIAMRHNNYILVPIKVATSVRRVLDLRGQLWRQVREITVDLGSDVRLARKLEIRRELEAINRNRDRLHEELAKL” the “soluble on expression in E. coli” value was “not soluble”. With “MAHHHHHHMAYLPPNMAERLQMSSSSTEPTTTSSMLPAPHSSANMRHIEGLVVVPGVVKVSRSDVASQYTMPHTNNAPLLFSEPEHRAVDNSSGSNDAQLEPKDPHLGLMPHCLSCTLLTSAGAQEPDDVYGRSMPSSSAVGAVTTELECAVVPTLHASFTPGVSTSIMPAPTEAHSACGSRPLQQPRWGGNYDSGSQCVSFRGADRSNNVSGCGLRLVGDDVEWLQGSFEDSASSPREEVQLSWGHLQRQPCAGKSSAARAVPPALHDVREGTGGEKVLAAHHRFERAVQPQTQRQGVFPSADQENCQAAAMLWAAQQMAVFD” the “soluble on expression in E. coli” value was “not soluble”. In the case of “MAHHHHHHMCGVIEGLWTRGGRVFHRYVRPSDPRRISAAAAAVHGITWETVQNCSPWPVVARELVAYMALVGADAPVSASAQLEAAQLGGQRAVHLPPLVAHNASFDARFLEHHLRRCGYQIFWHPRYPLTCTRQWAQVAYPHLANNLDALCAFLSIDWAADRAANGHDALTDATLTALLFLQMCRRWMERFGRGE”, the “soluble on expression in E. coli” value was “not soluble”. For “MAHHHHHHMCREPYLLLSMHRLLLAAYWPDSDRLHCSEREWPLTEHSGAVPFMVESANGRVLPWCPWRDNSVAELLAVVRGMMELAGMKLGIVVGDRLVPD”, the “soluble on expression in E. coli” value was “soluble”. In the case of “MAHHHHHHMDDFPLSLCSSNIRETMFKVTAPLFLALTTSNAIALSRGTSVSVSSEGGKCNEIWYSNGKEMCGSPLAPQSSTVQRALPPAPAPAKKPESSLRSGDEVATQHEERGGLDLRSIASRQPSFDALSATINGERQVGRASGTAIRGGNEGSAEPSSDEGQQRTTELWSGQAEGQVKQMAEGEQRNPGSGDEGQNQGGDVAPLQVAKEGESNMKWPPAQRVILGTVKENAQKETRKDLDDLEQEANSTQVGRTTAHKRHVMLITATLSFICVQRLLV”, the “soluble on expression in E. coli” value was “soluble”. In the case of “MAHHHHHHMDFVKELKSSQDYMNNELTYGAHNYDPIPVVLKRGKGVFVYDIEDRRYYDFLSAYSSVNQGHCHPDILNAMINQAKKLTICSRAFFSDSLGVCERYLTNLFGYDKVLMMNTGAEASETAYKLCRKWGYEVKKIPENSAKIIVCNNNFSGRTLGCVSASTDKKCKNNFGPFVPNFLKVPYDDLEALEKELQDPNVCAFIVEPVQGEAGVIVPSDSYFPGVASLCKKYNVLFVADEVQTGLGRTGKLLCTHHYGVKPDVILLGKALSGGHYPISAILANDDVMLVLKPGEHGSTYGGNPLAAAICVEALKVLINEKLCENADKLGAPFLQNLKEQLKDSKVVREVRGKGLLCAIEFKNDLVNVWDICLKFKENGLITRSVHDKTVRLTPPLCITKEQLDECTEIIVKTVKFFDDNL”, the “soluble on expression in E. coli” value was “soluble”. In the case of “MAHHHHHHMDSQGPFLVIPTKRGAVPTLTPAQANAILEPSERILATSVFEAMDFVKPCIEAGMQLSTYCGLSGYKTVLTLRSSFQGLHASASSSDTAVAGDNERGRAVISFEKWRDVVKATRPTFAVAVHESLPLCEPLNKRRRVAATRSETWLANTEEASDLGCTILPSISAGCTHDGGYIDAVPRGENSYEFFQTLQALQLSPKKCTMCVAPSISVLLAAMVSNVSLLECPLPWTLAEKGVALLLPLEEATTTSPEPVVPLLDLNDNVYALDINPIAEGCDCFTCKRHCRAYLHHLLTVQEMNSDILLVMHNLAQVVLLVRAYRCASAPTREALVSRVASAL”, the “soluble on expression in E. coli” value was “not soluble”.
